B1: Bcl-2-like protein 11 (Mus musculus), O54918-1 (parent)
chain: MAKQPSDVSSECDREGGQLQPAERPPQLRPGAPTSLQTEPQGNPDGEGDRCPHGSPQGPLAPPASPGPFATRSPLFIFVRRSSLLSRSSSGYFSFDTDRSPAPMSCDKSTQTPSPPCQAFNHYLSAMASIRQSQEEPEDLRPEIRIAQELRRIGDEFNETYTRRVFANDYREAEDHPQMVILQLLRFIFRLVWRRH
partner: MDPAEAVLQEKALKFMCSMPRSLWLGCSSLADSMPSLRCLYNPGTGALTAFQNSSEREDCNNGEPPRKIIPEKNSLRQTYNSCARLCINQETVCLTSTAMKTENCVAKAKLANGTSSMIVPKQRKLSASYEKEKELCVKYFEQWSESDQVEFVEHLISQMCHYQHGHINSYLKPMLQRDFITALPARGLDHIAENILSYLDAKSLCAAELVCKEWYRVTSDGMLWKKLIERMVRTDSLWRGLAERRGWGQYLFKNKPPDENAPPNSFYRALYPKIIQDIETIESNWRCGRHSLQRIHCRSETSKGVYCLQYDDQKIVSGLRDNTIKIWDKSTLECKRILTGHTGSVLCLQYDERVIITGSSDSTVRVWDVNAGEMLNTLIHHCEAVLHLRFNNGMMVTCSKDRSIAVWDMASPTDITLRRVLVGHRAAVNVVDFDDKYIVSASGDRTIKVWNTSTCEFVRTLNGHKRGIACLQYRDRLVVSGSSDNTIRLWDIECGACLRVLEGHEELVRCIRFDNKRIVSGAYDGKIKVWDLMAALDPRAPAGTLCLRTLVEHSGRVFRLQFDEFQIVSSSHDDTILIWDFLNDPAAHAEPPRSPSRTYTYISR
B2: Bcl-2-like protein 11 (Mus musculus), O54918-1 (parent)
chain: B1 chain

Variants of: B1
Settings: with fbw1a_mouse Btrc

Variant	effect of a mutation on the interaction
MAKQPSDVSSECDREGGQLQPAERPPQLRPGAPTSLQTEPQGNPDGEGDRCPHGSPQGPLAPPASPGPFATRSPLFIFVRRSALLSRSSSGYFSFDTDRSPAPMSCDKSTQTPSPPCQAFNHYLSAMASIRQSQEEPEDLRPEIRIAQELRRIGDEFNETYTRRVFANDYREAEDHPQMVILQLLRFIFRLVWRRH [S83A]	increasing interaction

Variants of: B2
Settings: with kapca_human PRKACA

Variant	effect of a mutation on the interaction
MAKQPSDVSSECDREGGQLQPAERPPQLRPGAPTSLQTEPQGNPDGEGDRCPHGSPQGPLAPPASPGPFATRSPLFIFVRRSALLSRSSSGYFSFDTDRSPAPMSCDKSTQTPSPPCQAFNHYLSAMASIRQSQEEPEDLRPEIRIAQELRRIGDEFNETYTRRVFANDYREAEDHPQMVILQLLRFIFRLVWRRH [S83A]	disrupting interaction
